In doi:10.1101/216812:

Target: biotinylated, taxol-stabilized microtubules tethered to coverslips (TIRF binding assays)
Experiment: TIRF microscopy of single particles

Row | Substance | fold change of average residence time against wild-type KKT4 | average residence time
1 | 549SNAP-6HIS-3FLAG-KKT4 charge-reversal mutant (R123E, K132E, R154E), full length (natural protein) | 2 fold | 
2 | 549SNAP-6HIS-3FLAG-KKT4, full-length wild-type KKT4 (natural protein) |  | 5.4 s
